# B1: GcL (Parageobacillus caldoxylosilyticus NBRC 107762) (protein)
# chain: MANVIKARPKLYVMDNGRMRMDKNWMIAMHNPATIHNPNAQTEFVEFPIYTVLIDHPEGKILFDTSCNPNSMGPQGRWAESTQQMFPWTATEECYLHNRLEQLKVRPEDIRYVVASHLHLDHAGCLEMFTNATIIVHEDEFNGALQCYARNQKEGAYIWADIDAWIKNNLQWRTVKRHEDNILLAEGVKVLNFGSGHAWGMLGLHVELPETGGIILASDAIYTAESYGPPIKPPGIIYDSLGYMNTVERIRRIAQETKSQVWFGHDAEQFKKFRKSTEGYYE
# Legend:
# purified protein [1] = substrate: CCCC(=O)N[C@H]1CCOC1=O; assay: purified protein; conditions: pH 8.3
# purified protein [2] = substrate: CCCCCCCCCC(=O)CC(=O)N[C@H]1CCOC1=O; assay: purified protein; conditions: pH 8.3
protein,measurement,setting,value
B1,Km,purified protein [1],(9.8 ± 0.7) × 10^2 μM
same,kcat/Km,purified protein [1],43000 M⁻¹ s⁻¹
same,Km,purified protein [2],97 ± 9 µM
